# Substitutions are numbered along the chain they refer to.
# T1: chicken interleukin 10 (chicken (Gallus gallus), UniProt Q6A2H4 22-174)
# T1 construct: also called cIL-10; cIL10
# T1 sequence: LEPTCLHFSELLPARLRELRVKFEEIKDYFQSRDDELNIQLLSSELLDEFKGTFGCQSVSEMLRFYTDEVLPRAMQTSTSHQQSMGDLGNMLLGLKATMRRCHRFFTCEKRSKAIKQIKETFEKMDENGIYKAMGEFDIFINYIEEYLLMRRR
# B1: chIL10sdAB1B9 (VHH)
# VHH: QVQLQESGGGLVQAGGSLRLSCAASGRTFSSYAWGWFRQAPGKEREFVARISFSGGHTYYSDSVKGRFTISRDNAKNTVYLQMNSLKPEDTAVYYCAADPTPYGLRNERNYPYWGQGTQVTVSS
# notes: Llama single domain antibody; The construct used in the ELISA and the cell assay is not described
# B2: chIL10sdAB1H1 (VHH)
# VHH: B1 VHH with E6A, S30N, E46G, T78S, P112H
# notes: Llama single domain antibody; The construct used in the ELISA is not described
# B3: chIL10sdAB1A11 (VHH, not shown: small tags and cut ends)
# VHH: QVQLQESGGGLVQPGGSLRLSCAASGNIFSINTMGWYRQAPGKQRELVASITTGGTTNYEDSVKGRFTISRDNAKKTVYLQMNRLKPEDTAVYYCNHRRSYSGRDYPVYGMDYWGKGTLVTVSS
# notes: Llama single domain antibody; also called 1A11 sdAB; 81-IL-bR2-1A11
# B4: chIL10sdAB1D6 (VHH)
# VHH: QVQLQASGGGLVQAGGSLRLSCQASESISSINTMGWFRQASGEEREFVAAIESGGATAYAESAKGRFTISRDNAKNTVYLQMNSLKPEDTAVYYCAAGVPTYDDDAMPISWRFWGRGTLVTVSS
# notes: Llama single domain antibody; The construct used in the ELISA is not described; also called 44-IL-bR2-1D6
# B5: chIL10sdAB1F11 (VHH, not shown: small tags and cut ends)
# VHH: QVQLQEFGGGLVQPGGSLRLSCAASGRTGSSYAMGWFRQAPGKEREFVAAISWSGGSTDYADSVKGRFTISRDNAKNTMYLQMNSLKPEDTAVYYCAVDRNLFKLRVAVQEYTNLGQGTQVTVSS
# notes: Llama single domain antibody; also called 86-IL-bR2-1F11
# Biological target: T1, chicken interleukin 10
# Assay: ELISA, sdAB titrated on cIL-10 coated plates
row,EC50 [nM],Binder
1,~35,B1
2,20,B2
3,~1,B3
4,~100,B4
5,~15,B5

# Biological target: T1, chicken interleukin 10
# Assay: cell-based or functional assay
row,"apparent EC50, recovery of IFN-γ secretion in primary chicken spleen cells treated with ConA and cIL-10 [nM]",Binder
1,40,B1
2,25,B3
3,60,B5

# — patent publication US20240200089A1 (AGRIVIDA, published 2024)
